# Assay: soluble on expression in E. coli; label from the status in PepcDB or PDB records
row,Sequence,soluble on expression in E. coli
1,SFFTCGPNEAMVVSGFCRSPPVMVAGGRVFVLPCIQQIQRISLNTLTLNVKSEKVYTRHGVPISVTGIAQVKIQGQNKEMLAAACQMFLGKTEAEIAHIALETLEGHQRAIMAHMTVEEIYKDRQKFSEQVFKVASSDLVNMGISVVSYTLKDIHDDQDYLHSLGKARTAQVQKDARIGEAEAKRDAGIREAKAKQEKVSAQYLSEIEMAKAQRDYELKKAAYDIEVNTRRAQADLAYQLQVAKTKQQIEEQRVQVQVVERAQQVAVQEQEIARREKELEARVRKPAEAERYKLERLAEAEKSQLIMQAEAEAASVRMRGEAEAFAIGARARAEAEQMAKKAEAFQLYQEAAQLDMLLEKLPQVAEEISGPLTSANKITLVSSGSGTMGAAKVTGEVLDILTRLPESVERLTGVSISQVNHKPLRTA,not soluble
2,SFRDCAEVFKSGHTTNGIYTLTFPNSTEEIKAYCDMEAGGGGWTIIQRREDGSVDFQRTWKEYKVGFGNPSGEYWLGNEFVSQLTNQQRYVLKIHLKDWEGNEAYSLYEHFYLSSEELNYRIHLKGLTGTAGKISSISQPGNDFSTKDGDNDKCICKCSQMLTGGWWFDACGPSNLNGMYYPQRQNTNKANGIKWAAWKGSGYSLKATTMMIRPADF,soluble
3,SFTSMLSVNQAVSAERKLIDHLIIYIEHEAQRLEDIKRFFSRVTSLHDGIYNEPSDPIANPIAAFKLVKRLKSEWLNVVHSTEAEENIKVLREDYRRMESSLPKLEDLRGAAHGLMRLQDVYNLHVESLVRGHFQQISDPVDFYKLSVSDMLSGDDCFLVGKVAYDLEDYYHSVLWFEEAVRLFRGTEWSPENEGTLEDALDHLAFSHFKVCH,not soluble
4,SGAAAAEADRTLFVGNLETKVTEELLFELFHQAGPVIKVKIPKDKDGKPKQFAFVNFKHEVSVPYAMNLLNGIRLYGRPIKIQFRSGSSHAPQDVSLSYPQHHVGNSSPTSTSPSRYERTMDNMTSSAQIIQRSFSSPENFQRQAVMNSALRQMSYGGKFGSSPLDQSGFSPSVQSHSHSFNQSSSSQWRQGTPSSQRKVRMNSYPYLADRHYSREQRYTDHGSDHHYRGKRDDFFYEDRNHDDWSHDYDNRRDSSRDGKWRSSRH,soluble
5,SHMAGLEVLFASAAPAITCRQDALVCFLHWEVVTHGYCGLGVGDQPGPNDKKSELLPAGWNNNKDLYVLRYEYKDGSRKLLVKAITVESSMILNVLEYGSQQVADLTLNLDDYIDAEHLGDFHRTYKNSEELRSRIVSGIITPIHEQWEKANV,soluble
6,SHMALRIIPCLDIDGGAKVVVKGVNFQGIREVGDPVEMAVRYEEEGADEIAILDITAAPEGRATFIDSVKRVAEAVSIPVLVGGGVRSLEDATTLFRAGADKVSVNTAAVRNPQLVALLAREFGSQSTVVAIDAKWNGEYYEVYVKGGREATGLDAVKWAKEVEELGAGEILLTSIDRDGTGLGYDVELIRRVADSVRIPVIASGGAGRVEHFYEAAAAGADAVLAASLFHFRVLSIAQVKRYLKERGVEVRI,soluble
7,SIAILVIMHGESTASSMVNVANTLLDCNHAVAINMGLEDRVQDILVQAVEIANKIDKGKGILILTDMGSILTFAKVIRDATGKEVKAIDMVSTPIVIEATRKALTPEMTLEKLYFNIIESIKKHYGDMEVTYAEKDNGGRY,not soluble
8,SISTARVPADKPVRIAFSLNDASDDTPPEDSIPLVFPELDQQLQPLPPCHDSEESMEVFKQHCQIAEEYHEVKKEITLLEQRKKELIAKLDQAEKEKVDAAELVREFEALTEENRTLRLAQSQCVEQLEKLRIQYQKRQGSS,soluble
9,SKDFTWEVGYNITWNDSKITKLTTTFNPDYQGIDAGTNQKHQVGEMPGTFYLYQQVYDENGKPIQNAFVDRNNDGQITEADRYLTHKSPMAKVYMGFSSQFSYKKWDLGFNLRANFGNYVYNGVASGNSTSNNYGGKGFVTNLYNGFQDTGFTLLNTSEQMASDYFLENASFLKMDNITLGYSFQNLFAAKLSGRISASVQNVFTISKYSGLDPECGAIDSNIWPRPRTYTIGLNLNF,not soluble
10,SKLPKGTRSSVYFAQHPEKEPLPSRQEVKQTPVIMAKIKGPGPAKYLRPSCTGYIDHDISMFKAPAYTLHSRHSEKRMVCHSSPGPCYLLDPKITRFGMSSCPQVPMEERISNLRLNPTLASCQYYFEKIHPPGERRAPQYTFGYRRPYRVMDLNPAPNQYQMPLLLGPNTPVSRAAPCYSLASRDKNWFYKEDVAGGPGPTTYARPEPSIYQNRSPTYSMAKRFAYPLDLTPRPGPGSHEVQQVTVHKPHIPAFTMGIKHSLHLCPLVIDIRD,not soluble
11,SKNEKEQLSKAKASVSSLNKVIQTKLTVGNLGLGLVVIQNGPYLQISHLINKGAAASDGILQPGDVLISVGHANVLGYTLREFLKLLQNITIGTVLQIKAYRGFLEIPQEWQD,soluble
12,SKQESAAPNTPPTSQSPTPSAQFPRNDGDPQALWIFGYGSLVWRPDFAYSDSRVGFVRGYSRRFWQGDTFHRGSDKMPGRVVTLLEDHEGCTWGVAYQVQGEQVSKALKYLNVREAVLGGYDTKEVTFYPQDAPDQPLKALAYVATPQNPGYLGPAPEEAIATQILACRGFSGHNLEYLLRLADFMQLCGPQAQDEHLAAIVDAVGTMLPCFCPTEQALALV,soluble
13,SLAHIVTLNTPLREDWLAQLADVVTNPDELLHLLQIEADENLRAGQDARRLFALRVPRAFIARMEKGNPDDPLLRQVLTSRDEFIVAPGFSTDPLEEQHSVVPGLLHKYQNRALLLVKGGCAVNCRYCFRRHFPYAENQGNKRNWTVALEYIAAHPELDEIIFSGGDPLMAKDHELDWLLTQLEAIKHVKRLRIHSRLPIVIPARITDELVARFDQSRLQILLVNHINHANEVDEAFGLAMKKLRHVGVTLLNQSVLLRGVNDNARTLANLSNALFDAGVMPYYLHVLDKVQGAAHFMVTDDEARQIMRELLTLVSGYMVPRLAREIGGEPSKTPLDLQLRQC,not soluble
14,SLAHVGTWDWDITNETLAWTDETYRIFGVKPQEFKATYEAFLFYIHADDRQAVIDAVNDAINNDSSYSIKHRVIRPSGEIREVLEKGQVLRDENGKASRIIGAVLDIT,not soluble
15,SLDAEKQLANITMGLPLSPAADSARSARHALSLIATARPPAFITTIAKEVHRHTALAANTQSQQSIHTTTLARAKGEILRVIEILIEKMPTDVVDLLVEVMDIIMYCLEGSLVKKKGLQECFPAICRFYMVSYYERSHRIAVGARHGSVALYDIRTGKCQTIHGHKGPITAVSFAPDGRYLATYSNTDSHISFWQMNTSLLGSIGMLNSAPQLRCIKTYQVPPVQPASPGSHNALKLARLIWTSNRNVILMAHDGKEHRFMV,soluble
16,SLDLNDTYSGKREPFSGDHSADGFEVTSRSEMSSGSEISPVSEMPSSSEPSSGADYDYSEEYDNEPQIPGYIVDDSVRVEQVVKPPQNKTESENTSDKPKRKKKGGKNGKNRRNRKKKNPCNAEFQNFCIHGECKYIEHLEAVTCKCQQEYFGERCGEKSMKTHSMIDSSEG,not soluble
17,SLEGQLEAGEPKEGTHPEDPCPGAGAAMEKTPAAAEVPREDGNAEEMPSLQQQITSLHQELGRQQSLWADIHRKLQSHMDALRKQNRELREELRGLQRQQWEAGKKPAASPHAGRESHTLALEPAFGKISPLSADEETTPKYAGRKSQSATLLGQRWSSNHLAPPKPMSLKTERINSGKTPPQEDREKSPPGRRQDRSPAPTGRPTPGAERREVSEDGKIMHPSSRSPQNSGGRKSPVQASQATTLQEQTAAARGADRSSSVLGSSEGGFLSRVQADEFASSSPDSAERQNLPVNPPSSLEIAQAMDTKMKKEEVQEEKRHPKGKADDCRRSGFPSEFPGALHAAPSRQDMGP,soluble
18,SLESYLRLSEVDKQILHSHALMLDGLGNFFGSTHEVILHSLENLESSAIKVINGHFSNRKEGAPITDMALKMLSQVESEHDYAVKPYYNKNQKGVILKSSTIPVIGENDRIIGLICINMHLEMPLIDYLQDLLPSGQQNDMSQELKNSEHFSDNIDELITTSLTKVKQAVESDPNVSHLNQNKEIVIRLYDQGIFNLKDSVIKIADRLGISKNTIYLHIRNHKKEEA,soluble
19,SLGAGQPLGGYAEDLEGRQADLPKYSRANVRIVFAAVFPESNVYQGGEGYPTPSSSRLLLLDQVKTYYALSSIHGVEIIESWRSAQEVLEAPRWRLGLLLHLEGADALADILDLELLHRLGFRSLGLTWNHDNRWAASCKTRRDYGLTQSGEDLVKKAAELGVIIDLAHASDKTVADAASASPKPVIVSHANFRWKVDSPRNVGEEAVEAVVSKGGVIGYSLISTLITRGRHPTLHDVASQMAEFVEVYGHRHLAIGTDYHGLLDIRPPTGLESIDRLPRLLEALADAGLSDRQIEAIAYGNIARVIREVLPES,not soluble
20,SLGFIMKLTKTALCTALFATFTFSANAQTYPDLPVGIKGGTGALIGDTVYVGLGSGGDKFYTLDLKDPSAQWKEIATFPGGERNQPVAAAVDGKLYVFGGLQKNEKGELQLVNDAYRYNPSDNTWMKLPTRSPRGLVGSSGASHGDKVYILGGSNLSIFNGFFQDTVAAGEDKAKKDEIAAAYFDQRPEDYFFTTELLSYEPSTNKWRNEGRIPFSGRAGAAFTIQGNELVVVNGEIKPGLRTAETHQGKFTAKGVQWKNLPDLPAPKGKSQDGLAGALSGYSNGHYLVTGGANFPGSIKQFKEGKLHAHKGLSKAWHNEVYTLNNGKWRIVGELPMNIGYGFSVSYNNKVLLIGGETDGGKALTSVKAISYDGKKLTIE,not soluble
21,SLGMIKNSLFGSVETWPWQVLSKGDKEEVAYEERACEGGKFATVEVTDKPVDEALREAMPKVAKYAGGTNDKGIGMGMTVPISFAVFPNEDGSLQKKLKVWFRIPNQFQSDPPAPSDKSVKIEEREGITVYSMQFGGYAKEADYVAQATRLRAALEGTATYRGDIYFCTGYDPPMKPYGRRNEIWLLKT,soluble
22,SLIENSHVKKDDIWPSGGQMTVKDLTAKYTEGGNAILENISFSISPGQRVGLLGRTGSGKSTLLSAFLRLLNTEGEIQIDGVSWDSITLEQWRKAFGVIPQKVFIFSGTFRKNLDPYEQWSDQEIWKVADEVGLRSVIEQFPGKLDFVLVDGGCVLSHGHKQLMCLARSVLSKAKILLLDEPSAHLDPVTYQIIRRTLKQAFADCTVILCEARIEAMLECDQFLVIEENKVRQYDSIQKLLNERSDFRQAISPSDGPSAQLEKELQALEKENAQLEWELQALEKELAQ,soluble
23,SLKKWLVTIAALWLAGCSSGEINKNYYQLPVVQSGTQSTASQGNRLLWVEQVAVPDYLAGNGVVYQTSDVKYVIANNTLWASPLDQQLRNTLVANLSTQLPGWVVASQPLGSAQDTLNVTVTEFNGRYDGKVIVSGEWLLNHQGQLIKRPFRLEGMQTQDGYDEMVKVLASVWSQEAASIAQEIKRLP,soluble
24,SLKQPVFKKVLQVGIVVHDLEKAVRTYADDFGIGPWQFYNLDKSNMHDMKMRGEKAEFSMKVAFTDLGGVQLELIEPLDESIYSDFLREHGEGIHHIACGVRNFEETMASMQKKDIKVLLEGTTSAGMGYVYLDTTDALSCITEIYRIPENLQYIPPDKTYEG,soluble
25,SLLGQKSQRYKAEEGLQAQGEAPGLMDVQIPTAEEQKAASSSSTLIMGTLEEVTDSGSPSPPQSPEGASSSLTVTDSTLWSQSDEGSSSNEEEGPSTSPDPAHLESLFREALDEKVAELVRFLLRKYQIKEPVTKAEMLESVIKNYKNHFPDIFSKASECMQVIFGIDVKEVDPAGHSYILVTCLGLSYDGLLGDDQSTPKTGLLIIVLGMILMEGSRAPEEAIWEALSVMGLYDGREHSVYWKLRKLLTQEWVQENYLEYRQAPGSDPVRYEFLWGPRALAETSYVKVLEHVVRVNARVRISYPSLHEEALGEEKGV,soluble
